From doi:10.1101/2020.12.02.408153 (bioRxiv, 2020)

Target: SARS-CoV-2 open reading frame (ORF) 8 (SARS-CoV-2, UniProt P0DTC8 16-121)
Test: SPR

Sequence of SARS-CoV-2 open reading frame (ORF) 8 (P0DTC8 16-121): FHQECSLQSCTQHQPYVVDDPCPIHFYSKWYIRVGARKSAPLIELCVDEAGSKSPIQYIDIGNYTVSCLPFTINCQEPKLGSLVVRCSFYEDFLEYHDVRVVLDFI

Binder: LLGDFFRKSKEKIGKEFKRIVQRIKDFLRNLVPRTES [LL-37]
- Kd: 290 nM
